Laboratory results from PMC13043812.

B1: unnamed (parent)
chain 1: MVTHELLVKAAGAVLTGLVGVSAYETLRKALGTAPIRRASVTVMEWGLRGTRRAEAAAESARLTVADVVAEARGRIGEEAPLPAGARVDE
chain 2: MTTVVDAEVQLTVVSDAAGRMRVQATGFQFDAGRAVAIEDTVGKVAGVQAVHAYPRTASIVIWYSRAICDTAAILSAIIDAETVPA

Variants of: B1
Settings: with partner chain of the complex shown; in M. smegmatis; parent: 100; read off a plot

| Variant | response |
| --- | --- |
| chain 1 E59A E71A | 0.015 % GFP+ cells |
| chain 1 E71A | 8.5 % GFP+ cells |
| chain 1 E59A | 0.31 % GFP+ cells |
